B1: 16F12, anti-PCSK9 huIgG4 (antibody, V domains shown)
VH: QVHLVESGGGVVQPGRSLRLSCAASGFTFNSFGMHWVRQAPGKGLEWVALIWSDGSDEYYADSVKGRFTISRDNSKNTLYLQMNSLRAEDTAVYYCARAIAALYYYYGMDVWGQGTTVTVSS
VL: QSVLTQPPSVSAAPGQKVTISCSGSSSNIGNNFVSWYQQLPGTAPKLLIYDYNKRPSGIPDRFSGSKSGTSATLGITGLQTGDEADYYCGTWDSSLSAYVFGTGTRVTVLQ
notes: also called 16F12.1
B2: mouse PCSK9, 8xHIS tagged (enzyme, UniProt Q80W65 35-694, looked up)
chain: QDEDGDYEELMLALPSQEDGLADEAAHVATATFRRCSKEAWRLPGTYIVVLMEETQRLQIEQTAHRLQTRAARRGYVIKVLHIFYDLFPGFLVKMSSDLLGLALKLPHVEYIEEDSFVFAQSIPWNLERIIPAWHQTEEDRSPDGSSQVEVYLLDTSIQGAHREIEGRVTITDFNSVPEEDGTRFHRQASKCDSHGTHLAGVVSGRDAGVAKGTSLHSLRVLNCQGKGTVSGTLIGLEFIRKSQLIQPSGPLVVLLPLAGGYSRILNAACRHLARTGVVLVAAAGNFRDDACLYSPASAPEVITVGATNAQDQPVTLGTLGTNFGRCVDLFAPGKDIIGASSDCSTCFMSQSGTSQAAAHVAGIVARMLSREPTLTLAELRQRLIHFSTKDVINMAWFPEDQQVLTPNLVATLPPSTHETGGQLLCRTVWSAHSGPTRTATATARCAPEEELLSCSSFSRSGRRRGDWIEAIGGQQVCKALNAFGGEGVYAVARCCLVPRANCSIHNTPAARAGLETHVHCHQKDHVLTGCSFHWEVEDLSVRRQPALRSRRQPGQCVGHQAASVYASCCHAPGLECKIKEHGISGPSEQVTVACEAGWTLTGCNVLPGASLTLGAYSVDNLCVARVHDTARADRTSGEATVAAAICCRSRPSAKASWVQ
notes: also called mPCSK9-8xHIS; mPCSK9; not shown: 8xHIS tag

Assay [1] concerns the target B2. In words: SPR (Biacore 2000), antibody amine-coupled on CM5 chip, PCSK9 injected, pH 7.4. For orientation: Surface plasmon resonance follows binding to a sensor surface in real time, without labels.
The target of assay [2] is B2. The assay can be described thus: KinExA solution equilibrium titration; title: 100pM 16F12 + (1pM ~ 10nM) mPCSK9.
In assay [3] the target is B1. In words: KinExA; mPCSK9 is varied, 16F12 is fixed at 100 pM; free 16F12 measured. For orientation: In KinExA the mixture passes briefly over coated beads that capture the unbound partner.
The target of assay [4] is T1, 31H4, anti-PCSK9 huIgG4.
T1 construct: also called 31H4.1; 31H4 IgG4
The assay can be described thus: KinExA; mPCSK9 is varied, 31H4 is fixed at 100 pM; free 31H4.1 measured.

Assay [5] addresses T2, human PCSK9 (proprotein convertase subtilisin/kexin type 9), wild type (human, UniProt Q8NBP7 31-692). In words: cell-based or functional assay.
Assay [6] has as its target T3, human PCSK9 D374Y mutant (human, UniProt Q8NBP7 31-692, biotinylated (sites not given) in the ELISA formats). The assay can be described thus: cell-based or functional assay.
Assay [7] deals with T2, human PCSK9 (proprotein convertase …). The assay can be described thus: competition ELISA: biotinylated WT PCSK9 (100 ng/mL) pre-incubated with 11F1, binding to captured LDLR. For orientation: ELISA stands for enzyme-linked immunosorbent assay.
In assay [8] the target is T3, human PCSK9 D374Y mutant. The assay can be described thus: competition ELISA: biotinylated D374Y PCSK9 (20 ng/mL) pre-incubated with 11F1, binding to captured LDLR.
In assay [9] the target is T2, human PCSK9 (proprotein convertase …). In words: competition ELISA: biotinylated WT PCSK9 (100 ng/mL) pre-incubated with 11F1, binding to captured LDLR; average of 3.
Assay [10] concerns the target T3, human PCSK9 D374Y mutant. The assay can be described thus: competition ELISA: biotinylated D374Y PCSK9 (20 ng/mL) pre-incubated with 11F1, binding to captured LDLR; average of 3.
Assay [11] deals with T2, human PCSK9 (proprotein convertase …). The assay can be described thus: blocking ELISA: biotinylated WT PCSK9 (100 ng/mL) pre-incubated with 11F1, added to plate-captured LDLR; blocked ligand LDLR; streptavidin-HRP, OD450.
The target in assay [12] is T3, human PCSK9 D374Y mutant. The assay can be described thus: blocking ELISA: biotinylated D374Y PCSK9 (20 ng/mL) pre-incubated with 11F1, added to plate-captured LDLR; blocked ligand LDLR; streptavidin-HRP, OD450.
Assay [13] has as its target furin (R&D Systems) (UniProt P09958 108-715, limits assumed). In words: competition ELISA: 0.4 ug/mL 11F1 pre-incubated with soluble proprotein convertase (furin inhibitor present), then added to plate-captured biotinylated PCSK9; OD450.
For assay [14], the target named is B2. The assay can be described thus: Biacore solution equilibrium assay: PCSK9 mixed with 21B12.1, free PCSK9 read on immobilised 21B12.
The target of assay [15] is B2. The assay can be described thus: SPR (Biacore 2000), antibody amine-coupled on CM5 chip, PCSK9 injected, pH 7.4; BIAcore (Table 7.1), not the assay of Table 8.2.

furin (R&D Systems), sequence (P09958 108-715 limits assumed): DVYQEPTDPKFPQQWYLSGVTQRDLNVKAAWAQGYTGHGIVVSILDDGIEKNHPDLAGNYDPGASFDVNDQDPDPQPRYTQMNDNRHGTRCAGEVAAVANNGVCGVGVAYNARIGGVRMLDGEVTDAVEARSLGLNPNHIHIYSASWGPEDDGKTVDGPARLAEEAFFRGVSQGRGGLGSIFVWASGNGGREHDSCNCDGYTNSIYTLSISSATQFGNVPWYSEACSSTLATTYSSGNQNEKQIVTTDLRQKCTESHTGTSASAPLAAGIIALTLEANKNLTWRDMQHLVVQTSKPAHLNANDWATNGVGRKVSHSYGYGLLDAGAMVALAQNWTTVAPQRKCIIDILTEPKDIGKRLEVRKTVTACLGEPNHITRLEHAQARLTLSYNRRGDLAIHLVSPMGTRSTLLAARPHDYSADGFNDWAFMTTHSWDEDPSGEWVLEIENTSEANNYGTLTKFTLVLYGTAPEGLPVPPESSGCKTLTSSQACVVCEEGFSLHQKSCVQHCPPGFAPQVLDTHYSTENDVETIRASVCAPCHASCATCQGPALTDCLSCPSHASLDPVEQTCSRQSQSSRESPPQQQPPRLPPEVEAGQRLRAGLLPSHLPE
T1 sequence (VL, as listed by the source, chain 2 of 2, other chains not shown): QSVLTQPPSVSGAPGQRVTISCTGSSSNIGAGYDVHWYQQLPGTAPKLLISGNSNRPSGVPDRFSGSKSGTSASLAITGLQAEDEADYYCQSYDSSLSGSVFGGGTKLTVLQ

As to B1, the Kd (in general, a measure of binding affinity in units of concentration) in assay [1] is 6.4 nM; in [2], 0.223 nM.

On to B2, for which the “IC50 (read off the curve)” value is roughly 0.4 nM in assay [3] and roughly 0.6 nM in assay [4].

B3: 11F1, anti-PCSK9 antibody (antibody, V domains shown)
VH: EVQLVESGGGLVQPGGSLRLSCAASGFTFSNYWMSWVRQAPGKGLEWVASIKQDGSEKYYVDSVKGRFAISRDNAKNSLFLQMNSLRAEDTAVYYCARDLVLMVYDIDYYYYGMDVWGQGTTVTVSS
VL: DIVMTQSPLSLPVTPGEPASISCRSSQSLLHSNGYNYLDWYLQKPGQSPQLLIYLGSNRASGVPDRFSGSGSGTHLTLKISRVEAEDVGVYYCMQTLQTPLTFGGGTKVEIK
notes: it was detected with anti-human Fc
For the molecule B3, the “EC50, LDL uptake in HepG2 cells (BODIPY-LDL)” value in [5] is 124 nM; in [6] it was 35.3 nM. Further, the IC50 (in general, the midpoint of a concentration-inhibition curve) in assay [7] was 4.4 to 8.1 nM; in [8] it was 7.3 to 10.1 nM; in [9], 5.9 nM; in assay [10], 9.1 nM. Besides, the “IC50 (read off the curve)” value in assay [11] is roughly 5 nM; in assay [12] it was roughly 10 nM. Moreover, in assay [13], the binding result was “no binding (tested: 20 ug/ml)”.

B4: 21B12, anti-PCSK9 huIgG4 (antibody, V domains shown)
VH: QVQLVQSGAEVKKPGASVKVSCKASGYTLTSYGISWVRQAPGQGLEWMGWVSFYNGNTNYAQKLQGRGTMTTDPSTSTAYMELRSLRSDDTAVYYCARGYGMDVWGQGTTVTVSS
VL: QSALTQPASVSGSPGQSITISCTGTSSDVGGYNSVSWYQQHPGKAPKLMIYEVSNRPSGVSNRFSGSKSGNTASLTISGLQAEDEADYYCNSYTSTSMVFGGGTKLTVLQ
notes: also called 21B12.1; 21B12 IgG4
For B4, the Kd in assay [14] came to 17 nM; in assay [15], 460 nM.

The values are drawn from patent US20130064825A1 (Amgen, published 2013).
